In PMC13356908:
One block for each molecule: values may come before it.

What was measured:
[1] = molecular target: LD655-labeled p97 D592AzF (human) (UniProt P55072); assay: FRET or BRET; stopped-flow mixing, 37°C, with ATP; 1 uM ^LD655p97/UN/Faf1 and 0.1 uM Ub-^Cy3Ub-Ubn chains; excitation 480 nm; apparent time constant
[2] = molecular target: LD655-labeled p97 D592AzF (human) (UniProt P55072); assay: cryo-EM structure; datasets 1 and 2: 12.5 uM ^LD655p97^D592AzF, 10 uM UN, 10 uM Faf1 FH-UBX, 20 uM Ub-^Cy3Ub-Ubn, GF buffer with 5 mM ATP, 0.06% CHAPS, 0.04% octyl-β-D-glucopyranoside, frozen at once after mixing; PI state, I state, Npl4 local map, IC1 and IC2
Ufd1 (human) (human) = molecular target: T1, Ufd1 (human) (human)
T1 sequence (Q92890 1-307, looked up): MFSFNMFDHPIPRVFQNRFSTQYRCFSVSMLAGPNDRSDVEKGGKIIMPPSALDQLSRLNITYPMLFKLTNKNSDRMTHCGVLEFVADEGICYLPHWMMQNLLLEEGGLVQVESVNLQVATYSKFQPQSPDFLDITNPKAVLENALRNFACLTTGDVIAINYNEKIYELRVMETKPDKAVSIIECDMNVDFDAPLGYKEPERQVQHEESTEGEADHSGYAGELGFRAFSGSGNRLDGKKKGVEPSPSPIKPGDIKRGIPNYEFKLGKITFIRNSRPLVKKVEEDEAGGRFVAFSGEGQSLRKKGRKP

apparent time constant of ubiquitin insertion (τinitiation) [1]: 5.1 s
Molecule: unanchored poly-ubiquitin chains with Cy3 on the second ubiquitin (Ub-^Cy3Ub-Ubn) (from UniProt P0CG48 1-76; P0CG48 1-76; P0CG48 1-76)

stoichiometry N (per p97 hexamer) [2]: 2
Molecule: Faf1 FH-UBX fragment (from UniProt Q9UNN5 481-650) (domain or fragment)

Eos-unfolding activity of p97-UN (Ufd1 (human) (human)): 5 fold
B1: Faf2 Δ1-271 (domain or fragment)
chain: YLVSERLEREERNQTQVLRQQQDEAYLASLRADQEKERKKREERERKRRKEEEVQQQKLAEERRRQNLQEEKERKLECLPPEPSPDDPESVKIIFKLPNDSRVERRFHFSQSLTVIHDFLFSLKESPEKFQIEANFPRRVLPCIPSEEWPNPPTLQEAGLSHTEVLFVQDLTDE
